Experimental findings from patent US20090280138A1 (OXFORD BIOMEDICA UK, published 2009) are described below.

Assay [1] addresses T1, MHC class I molecule A*0301 (biotin (bound to streptavidin-coated plate)).
T1 construct: also called A3; HLA-A3
Briefly: iTopia iScore. In a few lines: (§1)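 The iScore combines the binding, off-rate and affinity results into one overall binding-quality value for each 9-mer. These measurements were made by ELISA in duplicate on MHC-coated plates, with allele-specific positive controls.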

The target in assay [2] is T2, MHC class I molecule B*0702 (biotin (bound to streptavidin-coated plate)).
T2 construct: also called B7; HLA-B7
Briefly: iTopia iScore. In a few lines: as §1

The target in assay [3] is T3, MHC class I molecule A*0201 (biotin (bound to streptavidin-coated plate)).
T3 construct: also called A2; HLA-A2
Briefly: iTopia iScore. In a few lines:
as §1

The target of assay [4] is T4, MHC class I molecule A*0101 (biotin (bound to streptavidin-coated plate)).
T4 construct: also called A1; HLA-A1
Briefly: iTopia iScore. Put shortly: as §1

In assay [5] the target is T5, MHC class I allele A*0301 monomer (human, biotinylated, bound to streptavidin-coated plate).
T5 construct: also called A3; HLA-A3
Nature of the assay: iTopia, multiparametric iScore. As for the experimental part:
(§2) The 9 mers were tested for Peptide Binding, Off Rate and Affinity using iTopia Epitope Discovery System in accordance with the manufacturer's instructions. Briefly, 96 well microtitre plates coated with MHC molecules representing different MHC alleles are used to identify candidate peptides. […] Determinations are performed in duplicate using an ELISA plate reader and included allele specific positive controls.
(§3) Finally, multiparametric analysis is performed on the results from these assays and an iScore is generated. The iScore represents a measure of the overall quality of peptide-MHC binding, enabling candidate peptides to be ranked in order of binding quality and allowing rational prioritisation of peptides for functional cellular follow-up studies.

Assay [6] deals with T6, MHC class I allele A*0101 monomer (human, biotinylated, bound to streptavidin-coated plate).
T6 construct: placeholder peptide and b2M removed, then reconstituted with test peptide and fresh b2M; also called A1; HLA-A1
Briefly: iTopia, multiparametric iScore. The protocol: as §2, §3

The target in assay [7] is T7, MHC class I allele A*0201 monomer (human, biotinylated, bound to streptavidin-coated plate).
T7 construct: also called A2; HLA-A2
Nature of the assay: iTopia, multiparametric iScore. The protocol: as §2, §3

Assay [8] deals with T8, MHC class I allele B*0702 monomer (human, biotinylated, bound to streptavidin-coated plate).
T8 construct: also called B7; HLA-B7
Briefly: iTopia, multiparametric iScore. The protocol:
as §2, §3

B1: 5T4 9-mer peptide 113 LPRDVLAQL (peptide)
peptide: LPRDVLAQL
Consider B1, for which the iScore in assay [1] worked out at 0; in assay [2], 0.305; in assay [3], 0; in assay [4] it was 0.

B2: 5T4 9-mer peptide 109 LASNHFLYL (peptide)
peptide: LASNHFLYL
On to B2, for which the iScore in assay [1] amounted to 0.224; in assay [2], 0; in assay [3], 0.337; in assay [4] it was 0.12.

B3: 5T4 9-mer peptide 92 IVPPEDERQ (peptide)
peptide: IVPPEDERQ
Regarding B3, the iScore in assay [1], in assay [2], in assay [3] and in assay [4] was 0 throughout.

B4: 5T4 9-mer peptide 90 ILNHIVPPE (peptide)
peptide: ILNHIVPPE
For B4, the iScore worked out at 0 in assay [1], 0 in assay [2], 0.426 in assay [3] and 0 in assay [4].

B5: 5T4 9-mer peptide 93 PPEDERQNR (peptide)
peptide: PPEDERQNR
Turning to B5, the iScore in assay [1], in assay [2], in assay [3] and in assay [4] was 0 throughout.

B6: 5T4 9-mer peptide 115 VLAQLPSLR (peptide)
peptide: VLAQLPSLR
B6: the iScore in assay [1] turned out to be 0.023; in assay [2], 0; in assay [3] it was 0.113; in assay [4], 0.

B7: 5T4 9-mer peptide 101 AALLAGRAL (peptide)
peptide: AALLAGRAL
On to B7, for which the iScore in assay [1] was determined as 0; in assay [2], 0.238; in assay [3], 0.156; in assay [4], 0.

B8: 5T4 9-mer peptide 97 RSFEGMVVA (peptide)
peptide: RSFEGMVVA
As for B8, the iScore in assay [1] was 0; in assay [2], 0; in assay [3], 0.189; in assay [4] it was 0.

B9: 5T4 9-mer peptide 99 GMVVAALLA (peptide)
peptide: GMVVAALLA
Consider B9, for which the iScore in assay [1] is 0; in assay [2] it was 0; in assay [3] it was 0.384; in assay [4], 0.

B10: 5T4 9-mer peptide 103 AGRALQGLR (peptide)
peptide: AGRALQGLR
Turning to B10, the iScore in assay [1], in assay [2], in assay [3] and in assay [4] was 0 each time.

B11: 5T4 9-mer peptide 89 ELILNHIVP (peptide)
peptide: ELILNHIVP
For the molecule B11, the iScore in assay [1] came out at 0; in assay [2] it was 0; in assay [3], 0.067; in assay [4], 0.

B12: 5T4 9-mer peptide 112 LYLPRDVLA (peptide)
peptide: LYLPRDVLA
On to B12, for which the iScore in assay [1] came out at 0; in assay [2], 0; in assay [3] it was 0.218; in assay [4], 0.

B13: 5T4 9-mer peptide 121 (peptide)
peptide: LSNNSLVSL
For B13, the iScore in assay [5] is 0; in assay [6] it was 0; in assay [7] it was 0.116; in assay [8], 0.012.

B14: 5T4 9-mer peptide 120 (peptide)
peptide: LDLSNNSLV
For B14, the iScore in assay [5] turned out to be 0; in assay [6], 0; in assay [7] it was 0.156; in assay [8], 0.

B15: 5T4 9-mer peptide 116 AQLPSLRHL (peptide)
peptide: AQLPSLRHL
For the molecule B15, the iScore in assay [1] came to 0; in assay [2] it was 0; in assay [3] it was 0.162; in assay [4] it was 0.

B16: 5T4 9-mer peptide 119 RHLDLSNNS (peptide)
peptide: RHLDLSNNS
For B16, the iScore amounted to 0 in assay [1], 0 in assay [2], 0.029 in assay [3] and 0 in assay [4].

B17: 5T4 9-mer peptide 122 (peptide)
peptide: NNSLVSLTY
For the molecule B17, the iScore in assay [5], in assay [6], in assay [7] and in assay [8] was 0 throughout.

B18: 5T4 9-mer peptide 91 NHIVPPEDE (peptide)
peptide: NHIVPPEDE
B18: the iScore in assay [1], in assay [2], in assay [3] and in assay [4] was 0 each time.

B19: 5T4 9-mer peptide 96 QNRSFEGMV (peptide)
peptide: QNRSFEGMV
As to B19, the iScore stood at 0 in assay [1], 0 in assay [2], 0.052 in assay [3] and 0 in assay [4].

B20: 5T4 9-mer peptide 111 HFLYLPRDV (peptide)
peptide: HFLYLPRDV
In the case of B20, the iScore is 0 in assay [1], 0 in assay [2], 0.227 in assay [3] and 0 in assay [4].

B21: 5T4 9-mer peptide 95 ERQNRSFEG (peptide)
peptide: ERQNRSFEG
Regarding B21, the iScore in assay [1], in assay [2], in assay [3] and in assay [4] was 0 in each case.

B22: 5T4 9-mer peptide 107 RRLELASNH (peptide)
peptide: RRLELASNH
With B22, the iScore in assay [1], in assay [2], in assay [3] and in assay [4] was 0 in each case.

B23: 5T4 9-mer peptide 110 SNHFLYLPR (peptide)
peptide: SNHFLYLPR
Regarding B23, the iScore in assay [1] amounted to 0.084; in assay [2], 0; in assay [3] it was 0.051; in assay [4] it was 0.

B24: 5T4 9-mer peptide 105 LQGLRRLEL (peptide)
peptide: LQGLRRLEL
With B24, the iScore in assay [1] was 0; in assay [2] it was 0.119; in assay [3] it was 0.114; in assay [4], 0.

B25: 5T4 9-mer peptide 104 RALQGLRRL (peptide)
peptide: RALQGLRRL
With B25, the iScore came out at 0.027 in assay [1], 0.078 in assay [2], 0.168 in assay [3] and 0 in assay [4].

B26: 5T4 9-mer peptide 102 LLAGRALQG (peptide)
peptide: LLAGRALQG
B26: the iScore worked out at 0 in assay [1], 0 in assay [2], 0.176 in assay [3] and 0 in assay [4].

B27: 5T4 9-mer peptide 114 RDVLAQLPS (peptide)
peptide: RDVLAQLPS
B27: the iScore in assay [1], in assay [2], in assay [3] and in assay [4] was 0 in each case.

B28: 5T4 9-mer peptide 108 LELASNHFL (peptide)
peptide: LELASNHFL
For B28, the iScore in assay [1] amounted to 0; in assay [2] it was 0; in assay [3], 0.151; in assay [4], 0.

B29: 5T4 9-mer peptide 106 GLRRLELAS (peptide)
peptide: GLRRLELAS
As to B29, the iScore in assay [1] is 0; in assay [2], 0; in assay [3], 0.045; in assay [4] it was 0.

B30: 5T4 9-mer peptide 98 FEGMVVAAL (peptide)
peptide: FEGMVVAAL
Turning to B30, the iScore in assay [1] amounted to 0; in assay [2] it was 0; in assay [3], 0.051; in assay [4] it was 0.

B31: 5T4 9-mer peptide 118 SLRHLDLSN (peptide)
peptide: SLRHLDLSN
Take B31: the iScore in assay [1] came out at 0; in assay [2], 0; in assay [3] it was 0.03; in assay [4] it was 0.

B32: 5T4 9-mer peptide 88 LVELILNHI (peptide)
peptide: LVELILNHI
On to B32, for which the iScore was 0 in assay [1], 0 in assay [2], 0.109 in assay [3] and 0 in assay [4].

B33: 5T4 9-mer peptide 94 EDERQNRSF (peptide)
peptide: EDERQNRSF
With B33, the iScore in assay [1], in assay [2], in assay [3] and in assay [4] was 0 throughout.

B34: 5T4 9-mer peptide 100 VVAALLAGR (peptide)
peptide: VVAALLAGR
B34: the iScore in assay [1] was 0.125; in assay [2], 0; in assay [3] it was 0; in assay [4] it was 0.
